Laboratory results as given in US20260000742.

Target: mature TGF-β1, P04202
Sequence (P04202 279-390): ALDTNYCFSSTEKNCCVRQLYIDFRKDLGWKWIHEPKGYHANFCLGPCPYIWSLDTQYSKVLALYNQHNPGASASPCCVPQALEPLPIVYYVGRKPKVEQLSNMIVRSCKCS

B1: Htra3 tagged with FLAG at the C-terminus (Htra3-flag protein) (protein)
chain: REPPAAPCPARCDVSRCPSPRCPGGYVPDLCNCCLVCAASEGEPCGRPLDSPCGDSLECVRGVCRCRWTHTVCGTDGHTYADVCALQAASRRALQVSGTPVRQLQKGACPSGLHQLTSPRYKFNFIADVVEKIAPAVVHIELFLRHPLFGRNVPLSSGSGFIMSEAGLIVTNAHVVSSSSTASGRQQLKVQLQNGDAYEATIQDIDKKSDIATIVIHPKKKLPVLLLGHSADLRPGEFVVAIGSPFALQNTVTTGIVSTAQRDGKELGLRDSDMDYIQTDAIINYGNSGGPLVNLDGEVIGINTLKVAAGISFAIPSDRITRFLSEFQNKHVKDWKKRFIGIRMRTITPSLVEELKAANPDFPAVSSGIYVQEVVPNSPSQRGGIQDGDIIVKVNGRPLADSSELQEAVLNESSLLLEVRRGNDDLLFSIIPEVVM
- protein levels of TGF-β1 and phosphorylated Smad2/3 in primary cardiac fibroblasts (western blot): overexpression of Htra3 reduced the protein levels of both TGF-β1 and phosphorylated Smad2/3 (phospho-Smad2/3), a marker of activated TGF-β signaling
